Results: publication PMC2791442

Experiments:
Assay in all cases: EMSA
Conditions in all cases: EMSA: 200 ng protein, 5 ng 3'-biotin-labeled promoter DNA, 6% DNA retardation gel, 100 V at 4 C; binding buffer, salt and pH not stated
[1] = target: T1, MqsA-F (Escherichia coli) (UniProt Q46864)
T1 sequence: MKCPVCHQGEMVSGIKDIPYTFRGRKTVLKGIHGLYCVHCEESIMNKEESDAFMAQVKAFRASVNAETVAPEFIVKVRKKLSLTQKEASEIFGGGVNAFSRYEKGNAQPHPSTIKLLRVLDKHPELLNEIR

[2] = target: MqsR;MqsA-F (Escherichia coli;Escherichia coli) (UniProt Q46865+Q46864)
[3] = target: MqsR;MqsA-N (Escherichia coli;Escherichia coli) (UniProt Q46865+Q46864)
[4] = target: T2, MqsA-C (Escherichia coli) (UniProt Q46864)
T2 sequence: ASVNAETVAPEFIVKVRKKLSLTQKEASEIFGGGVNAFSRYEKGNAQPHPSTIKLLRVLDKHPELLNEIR

[5] = target: T3, MqsA-N (Escherichia coli) (UniProt Q46864)
T3 sequence: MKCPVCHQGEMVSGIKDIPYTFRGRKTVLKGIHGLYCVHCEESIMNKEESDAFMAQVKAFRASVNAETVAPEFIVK

Sequence of MqsR;MqsA-F (Escherichia coli;Escherichia coli) (Q46865 whole entry, one chain of several): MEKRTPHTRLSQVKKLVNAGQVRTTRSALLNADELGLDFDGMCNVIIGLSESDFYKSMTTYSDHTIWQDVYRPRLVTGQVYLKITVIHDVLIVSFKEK
Sequence of MqsR;MqsA-N (Escherichia coli;Escherichia coli) (Q46865 whole entry, one chain of several): as above

Sequence | binding [1] | binding [2] | binding [3] | binding [4] | binding [5]
CAGTCATCCGGTATAGTTCTTCATAATCTCTGCAAAATCATCGTGTTGTAATATTCTCTCATCACTCTCCATCAAATTTTCTTTTTTTCTCCATAATTGGCGCAAAAGTGTTTTTTACACTTTCATTGTTTTACCGTTGCTCTGATTAATTGACGCTAAAGTCAGTAAAGTTAATCTCGTCAACACGGCACGCTACTTAAGAAAGCCGTAATAAATAACTGAAAGGAAGGATATAGAATATGCGTAAATTAACTGCACTGTTTGTTGCC (double strand) [Pspy] | binds |  |  |  | 
CCTGCAGAGTCAAACTGACATGTTTCATTTTTCCCGTTCCAGGCATTTTAATTCCTTCGCGTGTTTTCTGTCCAACCCTGCCTGCATGGCAGAAGGAATTCACCTGGTGTATTAAAGTGAATAATCATAAACCACTCACCTTTGTTGTTATTAGCAGCAGAACAATGATGTGGTTAGTTAATTAAAGCTGAAAATAAGCTTTTTGCCTGGATTTTTATGGCGGCTTACGCCGCCGTTGAAACTTTAATCATCACCCGCCACGCGGATCACCACTTTGC (double strand) [PmcbR] | binds |  |  |  | 
CGGGTTAGTGCTAGTATGAAAAAGTGAGTCCTGTCCCGCTTCCTTCCTAATTGTAATTTTTCGTAATAATGCGATGAAAACCTGCAAAGAGTGGCTTATAGTTAAGCTAACAAACGAGAGGGCAAGTCCAGGTCAGTAAGTTTTTTCCATCCCGAAAGGTGTCCGTTAGTTCAACCGCTAAGAAGGGGACGCGTTATGGATGAATACTCACCCAAAAGACATGATATCGCACAGCTTAAGT (double strand) [PtomB] | no binding | no binding |  |  | 
CGTGTATGTGGTGTGCGTTTTTCCATAACCCCCGCCTCCCTGTTACTTTAGTTATAACCTAAAAGGTTAATTACAGCAATGAAAAAGCACCTAAAAGGTTAGTTAGATGTACGGAGATAGTGACCACACAAAACGTATTCTTTAAGGAAAGTGATTGACCATATAAGAAAGTGGCGCATTAGTAGCGCCAGTTTGAAGCAGGAATTTATAAGGGAAGCTGGAGTCAGGCATCAC (double strand) [PmqsR] | binds | binds | no binding | binds | no binding
